We go through two molecules from patent US20240384250A1, “FIBROBLAST GROWTH FACTOR 23 MODULATING COMPOUNDS” (THE UAB RESEARCH FOUNDATION, priority 2021, published 2024).

Assay [1] addresses Fc-tagged human FGFR1c ectodomain (human) (UniProt P11362). Briefly: plate assay: 100 ng FGF23 coated, 400 ng purified sKL-N694Q or wildtype, then 200 ng Fc-FGFR1c (FIG. 25F).
Assay [2] addresses Fc-tagged human FGFR4 ectodomain (human), P22455. Briefly: SPR: Fc-FGFR4 on the chip, FGF23 with sKL (human ectodomain, self-made) in solution (FIG. 11F). To be noted: remark: other sources report otherwise.
The target is the same in assay [3]. As to the kind of experiment: SPR: Fc-FGFR4 on the chip, FGF23 with sKL or heparin in solution. To be noted: remark: other sources report otherwise.
For assay [4] the target is unchanged. As to the kind of experiment: SPR: Fc-FGFR4 on the chip, FGF23 with heparin in solution (FIG. 11E). The note with it: remark: other sources report otherwise. (In SPR one partner is held on a chip, and binding of the other changes the refractive index at the surface.)
Assay [5] shares this target. Briefly: SPR (BIAcore T200): Fc-FGFR4 amine-coupled to the chip, FGF23 injected at 1000-63 nM, 25 °C. The note with it: remark: other sources report otherwise.

Chain of Fc-tagged human FGFR4 ectodomain (human), P22455 (P22455 22-369): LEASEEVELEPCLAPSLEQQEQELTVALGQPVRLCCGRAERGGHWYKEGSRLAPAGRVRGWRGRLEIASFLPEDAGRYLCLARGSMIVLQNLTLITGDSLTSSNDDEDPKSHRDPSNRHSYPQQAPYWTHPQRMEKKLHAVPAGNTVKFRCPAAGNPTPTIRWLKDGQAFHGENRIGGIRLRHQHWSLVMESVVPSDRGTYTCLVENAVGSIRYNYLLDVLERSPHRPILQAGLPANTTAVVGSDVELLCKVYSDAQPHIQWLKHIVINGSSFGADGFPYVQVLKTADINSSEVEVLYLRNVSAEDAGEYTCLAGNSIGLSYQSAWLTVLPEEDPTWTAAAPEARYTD
Chain of Fc-tagged human FGFR1c ectodomain (human) (P11362 22-376 limits assumed): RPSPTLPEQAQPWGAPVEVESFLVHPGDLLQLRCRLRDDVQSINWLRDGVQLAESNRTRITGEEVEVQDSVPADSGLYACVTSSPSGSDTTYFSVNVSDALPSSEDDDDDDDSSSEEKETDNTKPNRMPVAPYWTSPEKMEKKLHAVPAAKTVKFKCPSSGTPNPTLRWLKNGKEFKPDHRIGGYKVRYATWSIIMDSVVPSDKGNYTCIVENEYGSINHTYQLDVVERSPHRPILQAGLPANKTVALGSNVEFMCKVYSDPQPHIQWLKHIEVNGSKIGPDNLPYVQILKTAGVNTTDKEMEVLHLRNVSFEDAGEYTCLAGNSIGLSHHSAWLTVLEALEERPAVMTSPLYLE

B1: complex of FGF23 and sKL-N694Q (protein, part only; not given: FGF23 and C-terminal FLAG/His tag, not shown: small tags and cut ends)
chain: EPGDGAQTWARFSRPPAPEAAGLFQGTFPDGFLWAVGSAAYQTEGGWQQHGKGASIWDTFTHHPLAPPGDSRNASLPLGAPSPLQPATGDVASDSYNNVFRDTEALRELGVTHYRFSISWARVLPNGSAGVPNREGLRYYRRLLERLRELGVQPVVTLYHWDLPQRLQDAYGGWANRALADHFRDYAELCFRHFGGQVKYWITIDNPYVVAWHGYATGRLAPGIRGSPRLGYLVAHNLLLAHAKVWHLYNTSFRPTQGGQVSIALSSHWINPRRMTDHSIKECQKSLDFVLGWFAKPVFIDGDYPESMKNNLSSILPDFTESEKKFIKGTADFFALCFGPTLSFQLLDPHMKFRQLESPNLRQLLSWIDLEFNHPQIFIVENGWFVSGTTKRDDAKYMYYLKKFIMETLKAIKLDGVDVIGYTAWSLMDGFEWHRGYSIRRGLFYVDFLSQDKMLLPKSSALFYQKLIEKNGFPPLPENQPLEGTFPCDFAWGVVDNYIQVDTTLSQFTDLNVYLWDVHHSKRLIKVDGVVTKKRKSYCVDFAAIQPQIALLQEMHVTHFRFSLDWALILPLGNQSQVNHTILQYYRCMASELVRVNITPVVALWQPMAPNQGLPRLLARQGAWENPYTALAFAEYARLCFQELGHHVKLWITMNEPYTRQMTYSAGHNLLKAHALAWHVYNEKFRHAQNGKISIALQADWIEPACPFSQKDKEVAERVLEFDIGWLAEPIFGSGDYPWVMRDWLNQRNNFLLPYFTEDEKKLIQGTFDFLALSHYTTILVDSEKEDPIKYNDYLEVQEMTDITWLNSPSQVAVVPWGLRKVLNWLKFKYGDLPMYIISNGIDDGLHAEDDQLRVYYMQNYINEALKAHILDGINLCGYFAYSFNDRTAPRFGLYRYAADQFEPKASMKHYRKIIDSNGFPGPETLERFCPEEFTVCTECSFFHTRKS
B1 registered a fold increase in formation of the trimeric FGF23/FGFR1c/sKL complex against wildtype sKL in assay [1] of 3 fold.

B2: human FGF23, Q9GZV9 25-251 (ligand, UniProt Q9GZV9 25-251, looked up)
chain: YPNASPLLGSSWGGLIHLYTATARNSYHLQIHKNGHVDGAPHQTIYSALMIRSEDAGFVVITGVMSRRYLCMDFRGNIFGSHYFDPENCRFQHQTLENGYDVYHSPQYHFLVSLGRAKRAFLPGMNPPPYSQFLSRRNEIPLIHFNTPIPRRHTRSAEDDSERDPLNVLKPRARMTPAPASCSQELPSAEDNSPMASDPLGVVRGGRVNTHAGGTGPEGCRPFAKFI
In the case of B2, the fold increase in binding affinity in the presence of sKL in assay [2] was found to be 13 fold. In assay [3], this molecule displayed a fold, effect of sKL on FGFR4 affinity for FGF23 against that of heparin of 4 to 5 fold. Moreover, the fold increase in binding affinity in the presence of heparin in assay [4] was found to be 3 fold. For the same molecule, in assay [5], the Kd (commonly the concentration at which binding is half-saturated) came to 320 nM; the koff – broadly, the first-order rate constant of dissociation – is 0.04 s⁻¹; the kon (usually a measure of how fast the partners come together) came out at 120000 M⁻¹ s⁻¹.
